{"source": "patent US20230382948A1", "about": "“DELIVERY OF ENDOTHELIAL CELL-LADEN MICROGEL ELICITS ANGIOGENESIS IN SELF-ASSEMBLING ULTRASHORT PEPTIDE HYDROGELS” (KING ABDULLAH UNIVERSITY OF SCIENCE AND TECHNOLOGY, priority 2020, published 2023)", "key": {"SEM of microgels": {"experiment": "SEM of microgels", "assay_type": "physicochemical", "details": "for Microgel surface fiber bundle thickness: SEM", "protocol": "The surface topography of the microgels was visualized using a FEI Magellan XHR Scanning Electron Microscope with an accelerating voltage of 3 kV. The SEM samples were prepared by dehydrating the peptide microgels in a gradually increasing ethanol concentration. The dehydrated microgels were then dried in a Leica EM CPD300. The dried peptides were sputter coated with 5 nm […] before imaging."}, "[1]": {"experiment": "Rheological characterization of SUP bulk hydrogels", "assay_type": "physicochemical", "protocol": "The mechanical stiffness of the peptide hydrogels was analyzed using a TA Ares-G2 Rheometer equipped with parallel-plate geometries of 8 mm diameter at room temperature. The sample gap between the upper and the lower geometries was set at 1.8 mm. The hydrogels were prepared from 135 μL of peptide solution that was mixed with 15 μL of 10×PBS in an 8 mm i.d. poly(methyl methacrylate) (PMMA) casting ring and left for 1 day before measurement. The rings were kept inside Petri dishes at room temperature with water surrounding them and tightly sealed to avoid dehydration. To control the accuracy of the measurements, six replicates for each peptide hydrogel were prepared. The stiffness was analyzed through three successive tests, which were time sweep, frequency sweep, and amplitude sweep. Time sweep was first performed for 5 min with an angular frequency and a strain of 1 rad/s and 0.1%, respectively. A frequency sweep was subsequently performed on the sample for a range of angular frequency of 0.1-100 rad/s with the same strain of 0.1%. The tests were completed with the amplitude sweep by applying a gradual increase of strain […] at 1 rad/s angular frequency."}, "fibroblasts (HDFn)": {"test_system": "fibroblasts (HDFn)", "experiment": "Cell culture on microgels, HDFn", "assay_type": "cell-based, human", "details": "first 24 h of culture", "protocol": "A 1.2×10^6 amount of cells suspended in 4 mL of complete cell culture media (300,000 cells/mL) was mixed with 200 μL of microgels by pipetting. The mix was seeded at […] in a 24-well low binding plate and kept at 37° C., 95% humidity, and 5% CO2 under rocker conditions at 30 rpm for 24 h. Then, cell-laden microgels were transferred into a tube by pipetting and spun down at 50 g for 5 min. The upper layer, containing cells not adherent to the microgels, was discarded. At this moment, cell-laden microgels were either resuspended with complete cell culture media to continue cell culture under rocker conditions or processed for staining.\nThe cell-laden microgels were fixed with 4% formaldehyde (v/v) in PBS and incubated for 30 min at 22° C. Later, formaldehyde was removed by centrifugation, and cell-laden microgels were washed twice with PBS in a similar way. Permeabilization buffer (6.3 mM MgCl2, 233.7 mM sucrose, 0.5% (v/v) Triton® X-100 in PBS) was kept at −20° C. and thawed just before use. […]\nProliferative cells were labeled by incubating cell-laden microgels with […] EdU in complete medium for 24 h in rocking culture at 30 rpm. […] EdU was detected following the manufacturer instructions by incubating cell-laden microgels with a Click-iT Plus reaction cocktail for 30 min at 22° C. protected from light. […]"}, "[2]": {"experiment": "Transmission electron microscopy of nanofibers", "assay_type": "physicochemical", "details": "TEM", "protocol": "TEM imaging was performed using a FEI Tecnai G2 Spirit Twin instrument with a 120 kV emission gun. One drop of diluted peptide hydrogel in water was placed on a carbon-coated copper grid that had been treated with glow discharge plasma prior to being used. The drop was kept on the grid for 10 min before being blotted using filter paper. The grid was stained with 2% uranyl acetate for 30 s to get better contrast. The grid was then rinsed in water to remove uranyl excess and dried for at least 1 day before imaging. The average diameter of the nanofibers was measure using hnageJ and Origin software from 100 fibers."}}, "data": [{"substance": "Ac-Ile-Val-Cha-Lys-NH2 (IVXK; HELM PEPTIDE1{[ac].I.V.[Cha].K.[am]}$$$$V2.0; SMILES CC[C@H](C)[C@H](NC(C)=O)C(=O)N[C@H](C(=O)N[C@@H](CC1CCCCC1)C(=O)N[C@@H](CCCCN)C(N)=O)C(C)C) [IVZK, self-assembling ultrashort tetrapeptide, Z = cyclohexylalanine, forms hydrogels and microgels]", "values": [{"measurement": "Microgel stability through SEM sample preparation", "setting": "SEM of microgels; 1.5 wt %, critical point drier", "value": "stable enough to maintain their 3D spherical structure"}, {"measurement": "Microgel surface fiber bundle thickness", "setting": "SEM of microgels", "value": "around 20 nm"}, {"measurement": "Mechanical stiffness of hydrogel, comparison", "setting": "[1]; IVZK versus IVFK hydrogels, FIG. 15", "value": "higher stiffness"}, {"measurement": "HDFn cell adhesion and morphology on microgels", "setting": "fibroblasts (HDFn)", "value": "cell adhesion and stretched morphology"}, {"measurement": "Single-filament thickness", "setting": "[2]", "value": "around 3 nm"}]}, {"substance": "Ac-Ile-Val-Phe-Lys-NH2 (Ac-IVFK-NH2) [self-assembling ultrashort tetrapeptide, forms hydrogels and microgels]", "values": [{"measurement": "Microgel surface fiber bundle thickness", "setting": "SEM of microgels", "value": "around 20 nm"}, {"measurement": "Linear viscoelastic (LVE) region of hydrogel, comparison", "setting": "[1]; amplitude sweep, IVFK versus IVZK, FIGS. 18 and 19", "value": "wider"}, {"measurement": "HDFn cell adhesion and morphology on microgels", "setting": "fibroblasts (HDFn)", "value": "cell adhesion and stretched morphology"}, {"measurement": "Single-filament thickness", "setting": "[2]", "value": "around 3 nm"}]}]}
